Assays:
complement factor D (fD) [1] = target: complement factor D (fD) (UniProt P00746); assay: inhibition; details: non-specific control oligo
complement factor D (fD) [2] = target: complement factor D (fD) (UniProt P00746); assay: flow; details: 2'-F G, 2'-OMe A, C, U, apparent Kd of pool, SB1T, 37 C
casein = assay: FP filter; details: specificity control; 100 nM DNA, 20 uM casein
complement factor D (fD) [3] = target: complement factor D (fD) (UniProt P00746); assay: FP filter; details: 100 nM DNA, 5 uM fD

Chain of complement factor D (fD) (P00746 26-253): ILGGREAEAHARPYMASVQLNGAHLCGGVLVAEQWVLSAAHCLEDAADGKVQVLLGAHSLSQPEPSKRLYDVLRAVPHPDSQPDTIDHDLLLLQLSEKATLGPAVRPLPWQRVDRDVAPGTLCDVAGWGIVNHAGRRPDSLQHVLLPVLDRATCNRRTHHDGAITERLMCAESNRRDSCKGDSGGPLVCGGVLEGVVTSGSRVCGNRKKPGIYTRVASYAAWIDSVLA

Substance	binding signal (casein) [% bound]	also measured
C8 non-specific control oligo	–	IC50 (complement factor D (fD) [1]; alternative-pathway hemolysis): > 160 nM; activity (complement factor D (fD) [1]; fD esterase assay): 105 % activity
GGGAGUGUGUACGAGGCAUUAGGCCGCCNNNNNNNNNNNNNNNNNNNNNNNNNNNNNNGGCGGCUUUGAUACUUGAUCGCCCUAGAAGC [N30S selection round 6 pool]	–	Kd (complement factor D (fD) [2]): 34.4 nM
GGGAGUGUGUACGAGGCAUUAGGCCGCCNNNNNNNNNNNNNNNNNNNNNNNNNNNNNNGGCGGCUUUGAUACUUGAUCGCCCUAGAAGC [N30S selection round 7 pool]	–	Kd (complement factor D (fD) [2]; competed by anti-fD Fab AFD): 45.1 nM
GGGAGUGUGUACGAGGCAUUAGGCCGCCNNNNNNNNNNNNNNNNNNNNNNNNNNNNNNGGCGGCUUUGAUACUUGAUCGCCCUAGAAGC [N30S selection round 8 pool]	–	Kd (complement factor D (fD) [2]; competed by anti-fD Fab AFD): 8.8 nM
GTGACGACTGACATATCTGCAAAAGTTAGATTGACATGGTATGCACCGTCTGAGGTTGGTCGTAGTTGAGTCTGAGTGCT [Aptamer 12 (rank 9)]	0.6	–
GTGACGACTGACATATCTGCCCTATAGGGGTGTGGGCGAGGGGTGGGTGGTAGGGCGGCTCGTAGTTGAGTCTGAGTGCT [Aptamer 10 (rank 7)]	0.2	–
GTGACGACTGACATATCTGCGGCGGTTGGGGTCGAAGGGCGAGGGGTGGGAGGTCGCCGTAGTTGAGTCTGAGTGCT [Aptamer 7 (rank 4)]	0.1	–
GTGACGACTGACATATCTGCGGGCGTCTGAGCGCATGGATGACCCACCGACAGATTGCGGCGTAGTTGAGTCTGAGTGCT [Aptamer 27 (rank 24)]	0.6	–
GTGACGACTGACATATCTGCGTTTGGGGTTGGGGCCTGGGAGTTTGGGGAGCAGAAAGGACGTAGTTGAGTCTGAGTGCT [Aptamer 5 (rank 2)]	0.5	–
GTGACGACTGACATATCTGCNNNNNNNNNNNNNNNNNNNNNNNNNNNNNNNNNNNNNNNNCGTAGTTGAGTCTGAGTGCT [DNA selection round 9 pool]	–	binding signal (complement factor D (fD) [3]; round 9 pool): 14.6 % bound
GTGACGACTGACATATCTGCNNNNNNNNNNNNNNNNNNNNNNNNNNNNNNNNNNNNNNNNCGTAGTTGAGTCTGAGTGCT [naive N40 DNA library]	0.5	binding signal (complement factor D (fD) [3]; naive library background): 3.6 % bound; binding signal (complement factor D (fD) [3]; round 0 library): 0.88 % bound
GTGACGACTGACATATCTGCTATTTTGGGGCCTGGGTGTTGGGGATTGGGGACTATGTGTCGTAGTTGAGTCTGAGTGCT [Aptamer 8 (rank 5)]	0.3	–
GTGACGACTGACATATCTGCTCCGAGGTTATTGGGGTTGGGGCCTGGGCGATTGGGGCCTCGTAGTTGAGTCTGAGTGCT [Aptamer 4 (rank 1)]	0.5	–
GTGACGACTGACATATCTGCTGCTTCCAGCGGTCATGATATGCACTGTCTGAAGCTCGGTCGTAGTTGAGTCTGAGTGCT [Aptamer 15 (rank 12)]	0.2	–

— patent US20180051287
